Experiment [1] concerns the target SARS-CoV-2 XBB.1.5 spike protein (SARS-CoV-2). Description: cell-based or functional assay.
Experiment [2] has as its target SARS-CoV-2 Delta (B.1.617.2) spike protein (SARS-CoV-2). Description: cell-based or functional assay.
In experiment [3] the target is SARS-CoV-2 BQ.1.1 spike protein (SARS-CoV-2). Kind of experiment: cell-based or functional assay.
Experiment [4] addresses SARS-CoV-2 XBB.1.5 spike protein (SARS-CoV-2). Kind of experiment: cell-based or functional assay. The source holds these as a separate data set.
Experiment [5] concerns the target SARS-CoV-2 Delta (B.1.617.2) spike protein (SARS-CoV-2). Description: cell-based or functional assay. The source holds these as a separate data set.
Experiment [6] concerns the target SARS-CoV-2 BQ.1.1 spike protein (SARS-CoV-2). Description: cell-based or functional assay. The source holds these as a separate data set.
For experiment [7], the target named is SARS-CoV-2 XBB.1.5 spike protein (SARS-CoV-2). Kind of experiment: cell-based or functional assay. The source holds these as a separate data set.
Experiment [8] has as its target SARS-CoV-2 Delta (B.1.617.2) spike protein (SARS-CoV-2). Kind of experiment: cell-based or functional assay. This is another data set of the same source.
Experiment [9] deals with SARS-CoV-2 BQ.1.1 spike protein (SARS-CoV-2). Kind of experiment: cell-based or functional assay. The source holds these as a separate data set.
Experiment [10] addresses SARS-CoV-2 XBB.1.5 spike protein (SARS-CoV-2). Kind of experiment: cell-based or functional assay. The source holds these as a separate data set.
Experiment [11] deals with SARS-CoV-2 Delta (B.1.617.2) spike protein (SARS-CoV-2). Kind of experiment: cell-based or functional assay. The source holds these as a separate data set.
Experiment [12] addresses SARS-CoV-2 BQ.1.1 spike protein (SARS-CoV-2). Description: cell-based or functional assay. This is another data set of the same source.
The target of experiment [13] is SARS-CoV-2 BA.2 spike protein (SARS-CoV-2). Description: cell-based or functional assay.
Experiment [14] addresses SARS-CoV-2 spike S2 peptide 1153-1167, biotinylated (SARS-CoV-2). Kind of experiment: DELFIA on captured biotin-peptide. On the set-up: unit not given beside the values.
In experiment [15] the target is SARS-CoV-2 spike S2 peptide 1149-1163, biotinylated (SARS-CoV-2). Kind of experiment: DELFIA on captured biotin-peptide. The arrangement: unit not given beside the values.
Experiment [16] deals with SARS-CoV-2 spike S2 peptide 1141-1155, biotinylated (SARS-CoV-2). Kind of experiment: DELFIA on captured biotin-peptide. The arrangement: unit not given beside the values.
The target in experiment [17] is SARS-CoV-2 spike S2 peptide 1137-1151, biotinylated (SARS-CoV-2). Kind of experiment: DELFIA on captured biotin-peptide. The arrangement: unit not given beside the values.
Experiment [18] deals with SARS-CoV-2 spike S2 peptide 1157-1171, biotinylated (SARS-CoV-2). Kind of experiment: DELFIA on captured biotin-peptide. On the set-up: unit not given beside the values.
Experiment [19] concerns the target SARS-CoV-2 spike S2 peptide 1149-1167, biotinylated (SARS-CoV-2). Kind of experiment: DELFIA on captured biotin-peptide. On the set-up: unit not given beside the values.
In experiment [20] the target is SARS-CoV-2 spike S2 peptide 1143-1162, biotinylated (SARS-CoV-2). Kind of experiment: DELFIA on captured biotin-peptide. On the set-up: unit not given beside the values.
The target in experiment [21] is SARS-CoV-2 spike S2 peptide 1133-1147, biotinylated (SARS-CoV-2). Description: DELFIA on captured biotin-peptide. On the set-up: unit not given beside the values.
Experiment [22] deals with SARS-CoV-2 spike S2 peptide 1145-1159, biotinylated (SARS-CoV-2). Description: DELFIA on captured biotin-peptide. The arrangement: unit not given beside the values.

Consider Sotrovimab VH/VL-huIgG1-LS (antibody), for which the pseudovirus neutralization EC50, Vero E6 (sotrovimab VH/VL-huIgG1-LS + isotype) in experiment [1] is 0.17 µg/mL; in [2], 0.0079 µg/mL; in experiment [3], 1.2 µg/mL. Moreover, the figures for the pseudovirus neutralization EC90, Vero E6 (sotrovimab VH/VL-huIgG1-LS + isotype) in experiment [4], in experiment [5] and in experiment [6] were 1.5 µg/mL, 0.11 µg/mL and 9.6 µg/mL, respectively. For the same substance, the pseudovirus neutralization EC80, Vero E6 (sotrovimab VH/VL-huIgG1-LS + isotype) is 0.68 µg/mL in experiment [7], 0.042 µg/mL in experiment [8] and 4.4 µg/mL in experiment [9]. Also, the results for the pseudovirus neutralization Emax, Vero E6 (sotrovimab VH/VL-huIgG1-LS + isotype) (% neutralization) in experiment [10], in [11] and in experiment [12] were 93.4, 96.9 and 71.9, respectively. In experiment [13], this substance returned a pseudovirus neutralization EC50, Vero E6 of 0.851 µg/mL.

With “isotype control (palivizumab variable regions expressed as human IgG1 with LS mutation in the Fc region) (antibody)”, the AUC in experiment [14] is 8120; in experiment [15], 20500; in experiment [16], 13300; in experiment [17] it was 19300; in [18], 3110; in [19], 2600. In addition, the AUC was 3110 in experiment [20], 4060 in [21] and 1520 in experiment [22].

These data come from patent US20240360203A1.
